Laboratory results taken from the RNAGym collection of RNA variant scans (doi:10.7554/elife.80360).

B1: HDV Ribozyme (parent)
chain: GGCCGGCAUGGUCCCAGCCUCCUCGCUGGCGCCGGCUGGGCAACAUUCCGAGGGGACCGUCCCCUCGGUAAUGGCGAAUGGGACCCA

Variants of: B1
Test: self-cleavage, relative activity (ratio to wild type); higher = more cleavage; co-transcriptional

Row | Variant | self-cleavage
1 | GGCCGGCAUGGUCCCGGCCUCCUCGCUGGCGCCGGCUGGGCAACAUUCCGAGGGGACCGUCCCCUUGGUAAUGGCGAAUGGGACCCA [A16G C66U] | 0.988
2 | GGCCGGCAUGGUCCCGGCCUCCUCGCUGGCGCCGGCUGGGCAACAUUCCGAGGGGACCGUCCCCUCGGUCAUGGCGAAUGGGACCCA [A16G A70C] | 1.04
3 | GGCCGGCAUGGUCCCGGCCUCCUCGCUGGCGCCGGCUGGGCAACAUUCCGAGGGGACCGUCCCCUCGGUGAUGGCGAAUGGGACCCA [A16G A70G] | 1.33
4 | GGCCGGCAUGGUCCCGGCCUCCUCGCUGGCGCCGGCUGGGCAACAUUCCGAGGGGGCCGUCCCCUCGGUAAUGGCGAAUGGGACCCA [A16G A56G] | 0.864
5 | GGCCGGCAUGGUCCCGGCCUCCUCGCUGGCGCCGGCUGGGCAACAUUCCGAGGGGACCGUCCGCUCGGUAAUGGCGAAUGGGACCCA [A16G C63G] | 0.767
6 | GGCCGGCAUGGUCCCCGCCUCCUCGCUGGCGCCGGCUGGGCAACAUUCCGAGAGGACCGUCCCCUCGGUAAUGGCGAAUGGGACCCA [A16C G53A] | 0.674
7 | GGCCGGCAUGGUCCCCGCCUCCUCGCUGGCGCCGGCUGGGCAACAUUCCGAGCGGACCGUCCCCUCGGUAAUGGCGAAUGGGACCCA [A16C G53C] | 0.475
8 | GGCCGGCAUGGUCCCGGCCUCCUCGCUGGCGCCGGCUGGGCAACAUUCCGAGGGGACCGUCCCCUCGGUAUUGGCGAAUGGGACCCA [A16G A71U] | 1.01
9 | GGCCGGCAUGGUCCCGGCCUCCUCGCUGGCGCCGGCUGGGCAACAUUCCGAGGGGACCGUCCCCUCGGUACUGGCGAAUGGGACCCA [A16G A71C] | 0.575
10 | GGCCGGCAUGGUCCCCGCCUCCUCGCGGGCGCCGGCUGGGCAACAUUCCGAGGGGACCGUCCCCUCGGUAAUGGCGAAUGGGACCCA [A16C U27G] | 0.138
11 | GGCCGGCAUGGUCCCCGCCUCCUCGCUGGCGCCGGCUGGGCAACAUUCCGAGGGGACCGUCCGCUCGGUAAUGGCGAAUGGGACCCA [A16C C63G] | 0.633
12 | GGCCGGCAUGGUCCCCGCCUCCUCGCUGGCGCCGGCAGGGCAACAUUCCGAGGGGACCGUCCCCUCGGUAAUGGCGAAUGGGACCCA [A16C U37A] | 0
13 | GGCCGGCAUGGUCCCCGCCUCCUCGCUGGCGCCGGCCGGGCAACAUUCCGAGGGGACCGUCCCCUCGGUAAUGGCGAAUGGGACCCA [A16C U37C] | 0.831
14 | GGCCGGCAUGGUCCCCGCCUCCUCGCUGGCGCCGGCGGGGCAACAUUCCGAGGGGACCGUCCCCUCGGUAAUGGCGAAUGGGACCCA [A16C U37G] | 0.0923
15 | GGCCGGCAUGGUCCCGGCCUCCUCGCUGGCGCCGGCUGGGCAACAUUCCGAGGGGACCGUCCCUUCGGUAAUGGCGAAUGGGACCCA [A16G C64U] | 0.942
16 | GGCCGGCAUGGUCCCGGCCUCCUCGCUGGCGCCGGCUGGGCAACAUUCCGAGGGGACCGUCCCCUCGGUAAUGGCGAAUGGGACCCU [A16G A87U] | 0.939
17 | GGCCGGCAUGGUCCCGGCCUCCUCGCUGGCGCCGGCUGGGCAACAUUCCGAGGGGACCGUCCCCUCGGUAAUGGCGAAUGGGACCCG [A16G A87G] | 0.892
18 | GGCCGGCAUGGUCCCCGCCUCCUCGCUGGCGCCGGCUGGGCAACAUUCCGAGGGGACCGUCCCCUCGGUAAUGGAGAAUGGGACCCA [A16C C75A] | 0.133
19 | GGCCGGCAUGGUCCCCGCCUCCUCGCUGGCGCCGGCUGGGCAACAUUCCGAGGGGACCGUCCCCUCGGUAAUGGUGAAUGGGACCCA [A16C C75U] | 0.138
20 | GGCCGGCAUGGUCCCGGCCUUCUCGCUGGCGCCGGCUGGGCAACAUUCCGAGGGGACCGUCCCCUCGGUAAUGGCGAAUGGGACCCA [A16G C21U] | 0.0615
21 | GGCCGGCAUGGUCCCCGCCUCCUCGCUGGCGCCGGCUGGGCAACAUUCGGAGGGGACCGUCCCCUCGGUAAUGGCGAAUGGGACCCA [A16C C49G] | 0.923
22 | GGCCGGCAUGGUCCCCGCCUCCUCGCUGGCGCCGGCUGGGCAACAUUCUGAGGGGACCGUCCCCUCGGUAAUGGCGAAUGGGACCCA [A16C C49U] | 0.617

Row | Variant | self-cleavage
23 | GGCCGGCAUGGUCCCCGCCUCCUCGCUGGCGCCGGCUGGGCAACAUUCAGAGGGGACCGUCCCCUCGGUAAUGGCGAAUGGGACCCA [A16C C49A] | 0.609
24 | GGCCGGCAUGGUCCCGGCCUCAUCGCUGGCGCCGGCUGGGCAACAUUCCGAGGGGACCGUCCCCUCGGUAAUGGCGAAUGGGACCCA [A16G C22A] | 0.199
25 | GGCCGGCAUGGUCCCGGCCUCGUCGCUGGCGCCGGCUGGGCAACAUUCCGAGGGGACCGUCCCCUCGGUAAUGGCGAAUGGGACCCA [A16G C22G] | 0.185
26 | GGCCGGCAUGGUCCCCGCCUCCUCGCUGGCGCCGGCUGGGCAACAUUCCGAAGGGACCGUCCCCUCGGUAAUGGCGAAUGGGACCCA [A16C G52A] | 0.751
27 | GGCCGGCAUGGUCCCCGCCUCCUCGCUGGCGCCGGCUGGGCAACAUUCCGACGGGACCGUCCCCUCGGUAAUGGCGAAUGGGACCCA [A16C G52C] | 1.04
28 | GGCCGGCAUGGUCCCCGCCUCCUCGCUGGCGCCGGCUGGGCAACAUUCCGAUGGGACCGUCCCCUCGGUAAUGGCGAAUGGGACCCA [A16C G52U] | 0.643
29 | GGCCGGCAUGGUCCCGGCCUCCUCGCUGGUGCCGGCUGGGCAACAUUCCGAGGGGACCGUCCCCUCGGUAAUGGCGAAUGGGACCCA [A16G C30U] | 0.665
30 | GGCCGGCAUGGUCCCCGCCUCCUCGCUGCCGCCGGCUGGGCAACAUUCCGAGGGGACCGUCCCCUCGGUAAUGGCGAAUGGGACCCA [A16C G29C] | 0
31 | GGCCGGCAUGGUCCCCGCCUCCUCGCUGGCGCCAGCUGGGCAACAUUCCGAGGGGACCGUCCCCUCGGUAAUGGCGAAUGGGACCCA [A16C G34A] | 0.18
32 | GGCCGGCAUGGUCCCCGCCUCCUCGCUGGCGCCGGCUGGGCAACAUACCGAGGGGACCGUCCCCUCGGUAAUGGCGAAUGGGACCCA [A16C U47A] | 0.688
33 | GGCCGGCAUGGUCCCCGCCUCCUCGCUGGCGCCGGCUGGGCAACAUUCCGAGGGGACCGUUCCCUCGGUAAUGGCGAAUGGGACCCA [A16C C61U] | 0.798
34 | GGCCGGCAUGGUCCCGGCCUCCUCGCUGGCGCCGGCUGGGCAACAUUCCGAGGGGACCGUCCCCUCGGUAAUGGAGAAUGGGACCCA [A16G C75A] | 0.122
35 | GGCCGGCAUGGUCCCCGCCUCCUCGCUGGCCCCGGCUGGGCAACAUUCCGAGGGGACCGUCCCCUCGGUAAUGGCGAAUGGGACCCA [A16C G31C] | 0.0639
36 | GGCCGGCAUGGUCCCCGCCUCCUCGCUUGCGCCGGCUGGGCAACAUUCCGAGGGGACCGUCCCCUCGGUAAUGGCGAAUGGGACCCA [A16C G28U] | 0.0437
37 | GGCCGGCAUGGUCCCGGCCUCCUCGCUGGCGCCGGCUGGGCAAGAUUCCGAGGGGACCGUCCCCUCGGUAAUGGCGAAUGGGACCCA [A16G C44G] | 0.767
38 | GGCCGGCAUGGUCCCCGCCUCCUCGCUGGCGCCGGCUGGGCAACAUUCCGAGGGGACCCUCCCCUCGGUAAUGGCGAAUGGGACCCA [A16C G59C] | 0.974
39 | GGCCGGCAUGGUCCCCGCCUCCUCGCUGGCGCCGGCUGGGCAACAUUCCGAGGGGACCGUCCCCUCGGUAAUGGCGAAUGGGAUCCA [A16C C84U] | 0.727
40 | GGCCGGCAUGGUCCCGGCCUCCUCGCUGGCGCCGGCUGGGCAACAUUCCGAGGGGAACGUCCCCUCGGUAAUGGCGAAUGGGACCCA [A16G C57A] | 1.18
41 | GGCCGGCAUGGUCCCGGCCUCCUCGCUGGCGCCGGCUGGGCAACAUUCCGAGGGGACCGUCUCCUCGGUAAUGGCGAAUGGGACCCA [A16G C62U] | 1.13
42 | GGCCGGCAUGGUCCCCGCCUCCUCGCUGGCGCCGGCUGGGCAACAUUCCUAGGGGACCGUCCCCUCGGUAAUGGCGAAUGGGACCCA [A16C G50U] | 0.692
43 | GGCCGGCAUGGUCCCCGCCUCCUCGCUGGCGCCGGCUGGGCAACAUUCCGAGGGGACCGACCCCUCGGUAAUGGCGAAUGGGACCCA [A16C U60A] | 1.11
44 | GGCCGGCAUGGUCCCCGCCUCCUCGCUGGCGCCGGCUGGGCAACAUUCCGAGGGGACCGCCCCCUCGGUAAUGGCGAAUGGGACCCA [A16C U60C] | 0.369

Row | Variant | self-cleavage
45 | GGCCGGCAUGGUCCCGGCCUCCUCGCUGGCGCCGGCUGGGCACCAUUCCGAGGGGACCGUCCCCUCGGUAAUGGCGAAUGGGACCCA [A16G A43C] | 0.277
46 | GGCCGGCAUGGUCCCCGCCUCCUCGCUGGCGCCGGCUGGGCAACAUUCCGAGGGGACAGUCCCCUCGGUAAUGGCGAAUGGGACCCA [A16C C58A] | 0.582
47 | GGCCGGCAUGGUCCCGGCCUCCUCGCUGGCGCCGGCUGGGUAACAUUCCGAGGGGACCGUCCCCUCGGUAAUGGCGAAUGGGACCCA [A16G C41U] | 1.22
48 | GGCCGGCAUGGUCCCGGCCUCCUCGCUGGCGCUGGCUGGGCAACAUUCCGAGGGGACCGUCCCCUCGGUAAUGGCGAAUGGGACCCA [A16G C33U] | 0.802
49 | GGCCGGCAUGGUCCCGGCCUCCUCGCUGGCGCCGGCUGGGCAACAUUCCGAGGGGACCGUCCCCUCGGUAAUGGCGCAUGGGACCCA [A16G A77C] | 0
50 | GGCCGGCAUGGUCCCCGCCUCCUCGCUGGCGCCGGCUGGGCAACAUUCCGAGGGGACCGUCCCCUCGGUAAAGGCGAAUGGGACCCA [A16C U72A] | 0.437
51 | GGCCGGCAUGGUCCCCGCCUCCUCCCUGGCGCCGGCUGGGCAACAUUCCGAGGGGACCGUCCCCUCGGUAAUGGCGAAUGGGACCCA [A16C G25C] | 0
52 | GGCCGGCAUGGUCCCGGCCUCCUCGCUGGCGCCGGCUGGGCAACAUUCCGAGGGGACCGUCCCCUCGGUAAUGGCGAAUGGGAUCCA [A16G C84U] | 0.525
53 | GGCCGGCAUGGUCCCGGCCUCCUCGCUGGCGCCGGCUGGGCAACAUUCCGAGGGGACCGUCCCCUCGGUAAUGGCGAAUGGGAACCA [A16G C84A] | 0.7
54 | GGCCGGCAUGGUCCCCGCCUCCUCGCUGGCGCCGGCUGGGCAACAUUCCGAGGGGACCGUCCCCUCGGUAAUGGCGAAAGGGACCCA [A16C U79A] | 1.06
55 | GGCCGGCAUGGUCCCCGCCUCCUCGCUGGCGCCGGCUGGGCAACAUUCCGAGGGGACCGUCCCCUCGGUAAUGGCGAACGGGACCCA [A16C U79C] | 0.8
56 | GGCCGGCAUGGUCCCCGCCUCCUCGCUGGCGCCGGCUGGGCAACAUUCCGAGGGGAACGUCCCCUCGGUAAUGGCGAAUGGGACCCA [A16C C57A] | 0.852
57 | GGCCGGCAUGGUCCCGGCCUCCUCGCUGGCGUCGGCUGGGCAACAUUCCGAGGGGACCGUCCCCUCGGUAAUGGCGAAUGGGACCCA [A16G C32U] | 0.811
58 | GGCCGGCAUGGUCCCGGCCUCCUCGCUGGCGACGGCUGGGCAACAUUCCGAGGGGACCGUCCCCUCGGUAAUGGCGAAUGGGACCCA [A16G C32A] | 0.107
59 | GGCCGGCAUGGUCCCGGCCUCCUCGCUGGCGGCGGCUGGGCAACAUUCCGAGGGGACCGUCCCCUCGGUAAUGGCGAAUGGGACCCA [A16G C32G] | 0.145
60 | GGCCGGCAUGGUCCCCGCCUCCUCGCUGGCGCCGGCUGGGCAACAUUCCGAGGGGACCGUCCCCUCGGUAAUGGCGAAUGGAACCCA [A16C G82A] | 0.72
61 | GGCCGGCAUGGUCCCGGCCUCCUCGCUGGCGCCGGCUGGGCAACCUUCCGAGGGGACCGUCCCCUCGGUAAUGGCGAAUGGGACCCA [A16G A45C] | 0.506
62 | GGCCGGCAUGGUCCCCGCCUCCCCGCUGGCGCCGGCUGGGCAACAUUCCGAGGGGACCGUCCCCUCGGUAAUGGCGAAUGGGACCCA [A16C U23C] | 0.87
63 | GGCCGGCAUGGUCCCCGCCUCCUCGCUGGCGCCGGCUGGGCAACAUUCCGAGGGGACCGUCCCCUCGGUAAUGGCGAAUUGGACCCA [A16C G80U] | 0.171
64 | GGCCGGCAUGGUCCCCGCCUCCUCGCUGGCGCCGGCUGGGCAACAUUCCGAGGGGACCGUCCCCUCGGUAAUGGCGAAUCGGACCCA [A16C G80C] | 0.201
